Data reported in publication PMC9723800, “Structural and dynamic basis of DNA capture and translocation by mitochondrial Twinkle helicase” (Nucleic Acids Research, 2022).
Numbering of substitutions follows the chain as printed. “And” between values parts separate entries of the source, which are not always exact repeats. Equal entries are not always repeated. Values belong to the molecule of their own block, whether it stands above or below them.

Legend:
LcTwinkle [1] = target: T1, LcTwinkle (Lates calcarifer, UniProt A0A4W6C5C5, E452Q); experiment: cryo-EM structure of LcTwinkle-ssDNA-ATP complex, […] Å; assay type: binding; settings: 1 mM ATP, 2 mM MgCl2, pH 8.0, five ATP at the subunit interfaces, one Mg2+ each
T1 construct: gene TWNK; shorter variant (primase-like NTD + helicase CTD), synthesized gene, modified pET28a, N-terminal His tag cut by PreScission; E. coli BL21(DE3); homo-hexamer (also heptamer)
T1 sequence (A0A4W6C5C5 128-683 E452Q): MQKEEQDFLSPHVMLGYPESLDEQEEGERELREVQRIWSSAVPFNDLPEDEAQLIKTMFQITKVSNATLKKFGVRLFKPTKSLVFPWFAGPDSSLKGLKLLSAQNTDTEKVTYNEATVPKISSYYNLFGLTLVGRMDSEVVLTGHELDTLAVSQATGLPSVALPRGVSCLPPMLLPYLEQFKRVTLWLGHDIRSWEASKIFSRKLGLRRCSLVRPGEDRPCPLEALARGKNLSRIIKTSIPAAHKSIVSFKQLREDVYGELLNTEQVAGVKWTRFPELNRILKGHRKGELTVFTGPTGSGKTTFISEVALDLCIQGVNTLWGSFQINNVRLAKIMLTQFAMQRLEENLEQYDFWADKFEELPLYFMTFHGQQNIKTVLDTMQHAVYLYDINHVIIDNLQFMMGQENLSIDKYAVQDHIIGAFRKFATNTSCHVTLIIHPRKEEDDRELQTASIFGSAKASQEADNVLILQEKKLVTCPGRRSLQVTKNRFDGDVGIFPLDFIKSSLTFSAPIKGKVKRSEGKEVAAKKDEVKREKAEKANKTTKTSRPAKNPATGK

LcTwinkle [2] = target: T2, LcTwinkle (Lates calcarifer, UniProt A0A4W6C5C5); experiment: [gamma-32P]ATP TLC ATPase assay, Michaelis-Menten fit; assay type: biochemical; settings: 12 mM MgCl2, 1 uM ssDNA, 150 mM KCl, pH 8.0, 20 °C; labelled compound as tracer
T2 construct: gene TWNK; shorter variant (primase-like NTD + helicase CTD), synthesized gene, modified pET28a, N-terminal His tag cut by PreScission; E. coli BL21(DE3); homo-hexamer (also heptamer)
T2 sequence (A0A4W6C5C5 128-683): T1 sequence (A0A4W6C5C5 128-683 E452Q) with Q325E

[3] = target: E325Q LcTwinkle (Lates calcarifer Twinkle helicase, active site mutant) (Lates calcarifer); experiment: cryo-EM structure; apo (DNA-free) classes found by 3D classification in the same sample prepared with ssDNA and ATP: LcTwinkle6 and LcTwinkle7 (8.5 A)
[4] = target: E325Q LcTwinkle (Lates calcarifer Twinkle helicase, active site mutant) (Lates calcarifer); experiment: cryo-EM structure; E325Q LcTwinkle with ssDNA (1:1.5), 1 mM ATP, 2 mM MgCl2, 50 mM Tris pH 8.0, 150 mM KCl, 3 mM DTT; DNA-bound classes (LcTwinkle-DNA 3.5 A, LcTwinkle-DNA2 7.5 A)
[5] = target: WT LcTwinkle (Lates calcarifer Twinkle helicase) (Lates calcarifer); experiment: negative staining EM; 0.02 mg/ml Twinkle in 50 mM Tris pH 8.0, 150 mM KCl, 3 mM DTT, 1 mM ATP, 2 mM MgCl2, ssDNA at 1:2 relative to hexamers; uranyl acetate; 2D classification
LcTwinkle E325Q = target: T3, LcTwinkle E325Q (Lates calcarifer, UniProt A0A4W6C5C5 128-683, E452Q); experiment: cryo-EM structure (3.5 A); 1 mM ATP, 2 mM Mg2+; FA: 25 mM Tris-HCl pH 8.0, 150 mM KCl, 0.5 mM ATP, 1 mM MgCl2, 20 nM Cy5-ssDNA, temperature not stated; SEC/cryo-EM: 50 mM Tris pH 8.0, 150 mM KCl, 3 mM DTT, 1; settings: protein: recombinant; tags: N-terminal His tag, PreScission-cleaved; chain copies: 6; single strand
T3 sequence: T1 sequence (A0A4W6C5C5 128-683 E452Q)

LcTwinkle R489A = target: T4, LcTwinkle R489A (Lates calcarifer, UniProt A0A4W6C5C5 128-683, R616A); experiment: fluorescence anisotropy; 0.5 mM ATP, 1 mM Mg2+; FA: 25 mM Tris-HCl pH 8.0, 150 mM KCl, 0.5 mM ATP, 1 mM MgCl2, 20 nM Cy5-ssDNA, temperature not stated; SEC/cryo-EM: 50 mM Tris pH 8.0, 150 mM KCl, 3 mM DTT, 1; settings: protein: recombinant; tags: N-terminal His tag, PreScission-cleaved; chain copies: 6; label: 5'-Cy5; single strand
T4 sequence: T1 sequence (A0A4W6C5C5 128-683 E452Q) with Q325E, R489A

LcTwinkle R440A = target: T5, LcTwinkle R440A (Lates calcarifer, UniProt A0A4W6C5C5 128-683, R567A); experiment: as above; settings: protein: recombinant; tags: N-terminal His tag, PreScission-cleaved; chain copies: 6; label: 5'-Cy5; single strand
T5 sequence: T1 sequence (A0A4W6C5C5 128-683 E452Q) with Q325E, R440A

LcTwinkle H438A = target: T6, LcTwinkle H438A (Lates calcarifer, UniProt A0A4W6C5C5 128-683, H565A); experiment: as above; settings: protein: recombinant; tags: N-terminal His tag, PreScission-cleaved; chain copies: 6; label: 5'-Cy5; single strand
T6 sequence: T1 sequence (A0A4W6C5C5 128-683 E452Q) with Q325E, H438A

LcTwinkle S456A = target: T7, LcTwinkle S456A (Lates calcarifer, UniProt A0A4W6C5C5 128-683, S583A); experiment: as above; settings: protein: recombinant; tags: N-terminal His tag, PreScission-cleaved; chain copies: 6; label: 5'-Cy5; single strand
T7 sequence: T1 sequence (A0A4W6C5C5 128-683 E452Q) with Q325E, S456A

Molecule: Nc1ncnc2c1ncn2[C@@H]1O[C@H](COP(=O)(O)OP(=O)(O)OP(=O)(O)O)[C@@H](O)[C@H]1O [ATP]
cryo-EM structure of LcTwinkle-ssDNA-ATP complex, 3.5 Å (LcTwinkle [1]): ATPase sites are located at each of the subunit interfaces (Figure 2A), and five ATP molecules
KM (LcTwinkle [2]): The data were fitted to Michaelis–Menten equation with GraphPad

stoichiometry N [3]: 6 and 7
stoichiometry N [4]: 6
Molecule: E325Q LcTwinkle (Lates calcarifer Twinkle helicase, active site mutant) (enzyme)

stoichiometry N [5]: 6 and 7
Molecule: WT LcTwinkle (Lates calcarifer Twinkle helicase) (enzyme)

B1: TGGTC-oligo(dT) ssDNA (ssDNA)
DNA: TGGTCTTTTTTTTTTTTTTTTTTTTTTTTT
binding result (LcTwinkle E325Q): binds

B2: Cy5-ssDNA (ssDNA)
DNA: GGATTATTTACATTGGCAGATTCACC
binding result (LcTwinkle R489A): no binding
binding result (LcTwinkle R440A): no binding
binding result (LcTwinkle H438A): no binding
binding result (LcTwinkle S456A): no binding
